Test results: publication PMC12037675, “Design of self-emulsifying oral delivery systems for semaglutide: reverse micelles versus hydrophobic ion pairs” (Drug Delivery and Translational Research, 2024)

Assays:
[1] = Solubility of (poly)peptides in lipid phases via reverse micelles (dry addition) or HIP; type: physicochemical
Description: (Poly)peptide loaded RM were prepared utilizing 200 mM of surfactants dissolved within the oily phase (GML/C8 (1:4; m/m), GMCC/C8 (1:4; m/m) and GMCC/GML (1:4; m/m)) in order to guarantee formation of reverse micelles. Loaded reverse micelles were prepared by the addition of semaglutide to surfactant-oil solutions (200 mM ELA or 200 mM DOC) resulting in a final concentration of 50 mg/mL. The mixtures were vortexed and treated with ultrasound for 30 min before incubation at 1200 rpm at room temperature (RT). Formation of reverse micelles by dry addition method, describing the direct addition of the API in powdered form to lipophilic solvents without use of any additional solvents, was investigated for semaglutide and three further (poly)peptides for comparison. In that regard, semaglutide with a molecular weight of 4.1 kDa was compared to colistin representing the smallest investigated peptide (1.1 kDa). In addition, two larger polypeptides, lysozyme (LYS, 14.4 kDa) and bovine serum albumin (BSA, 66.4 kDa) were investigated. At predetermined time points the dissolved (poly)peptide in supernatant was quantified by HPLC after centrifugation at 12,045 RCF for 10 min.

Caco-2 monolayer = test: Caco-2 permeation study; type: in vitro ADME, human; settings: Caco-2 on 24-well Transwell, 21 days, apical to basolateral, HBS pH 6.8, SEDDS 0.05% (v/v), 6 h; ELISA; means n = 4
Description: The ability of native semaglutide as well as semaglutide-RM loaded SEDDS and SEDDS containing HIP to permeate the intestinal epithelium was investigated using Caco-2 cells. Caco-2 cell line was seeded on a 24-well Transwell filters plate at a cell density of 1.25 × 10^5 cells/cm^2. Cells were cultivated for 21 days replacing the media every second day. On the day of the experiment, cells were washed twice using sterile HBS buffer pH 6.8. To start the experiment after the equilibration period, the buffer was removed and replaced with 100 µL of either native semaglutide solution in sterile HBS buffer pH 6.8 or semaglutide-RMs loaded SEDDS diluted to a concentration of 0.05% (v/v) with sterile HBS buffer pH 6.8. Sterile HBS buffer (500 µL) was added to basolateral side. At predetermined time points, 100 µL were withdrawn from basolateral chambers and replaced with prewarmed HBS. The amount of semaglutide in the basolateral chamber was measured through ELISA (KRIBIOLISA™ Semaglutide ELISA, Krishgen BioSystems, US). Transepithelial electric resistance (TEER) in a range of 1200–3300 ohm/cm^2 were measured ensuring integrity of cell monolayers (Evom2, World Precision Instrument Inc., USA).

[2] = Hydrophobic ion pairing with ethyl lauroyl arginate: precipitation efficiency; type: physicochemical; settings: 1:1 charge ratio (peptide:surfactant), peptide in 0.001 M NaOH, 2 h, 400 rpm, ambient temperature; mean ± SD
Description: Hydrophobic ion pairs were formed in order to increase lipophilicity of semaglutide according to previous studies. The peptide was dissolved in 0.001 M NaOH in a concentration of 10 mg/ml to obtain a negative net charge. Ethyl lauroyl arginate, as a cationic counter ion was dissolved in demineralized water. Equal amounts (500 µL: 500 µL) of peptide and surfactant solution were combined corresponding to a charge ratio of 1:1 (peptide:surfactant). Samples were agitated at 400 rpm for 2 h on a thermomixer (Eppendorf, Austria) at ambient temperature. Precipitates were separated from the solution by centrifugation at 12,045 RCF for 10 min (Minispin, Eppendorf, Austria). Precipitation efficiency was determined according to the following equation:1 [drawing 1]

[3] = cited from earlier work
log D lipid phase/water = type: physicochemical
Description: Retention of drug within lipid phase after emulsification is crucial for the active ingredient to reach the absorption membrane in intact form. Thus, high log Dlipid phase/water values are substantial for lipophilic complexes of semaglutide. In brief, 200 µL of peptide loaded RM or HIP complexes corresponding to 2 mg of semaglutide in the lipid phases GML/C8 (1:4; m/m), […] were underlaid with 200 µL of demineralized water and incubated at 300 rpm on a thermomixer for 24 h. In the following samples were centrifuged at 12,045 RCF for 10 min and 100 µL aliquots from both phases were withdrawn and the amount of peptide was quantified by HPLC. The distribution coefficient was calculated according to Eq. 3:3 [drawing 5]
where [drawing 6] corresponds to peptide concentration in the lipophilic phase after incubation and [drawing 7] to peptide concentration in the water phase after incubation. Log Dlipid phase/water values for reference (poly)peptides were determined in the same manner.

CC[C@H](C)[C@H](NC(=O)[C@H](Cc1ccccc1)NC(=O)[C@H](CCC(=O)O)NC(=O)[C@H](CCCCNC(=O)COCCOCCNC(=O)COCCOCCNC(=O)CC[C@H](NC(=O)CCCCCCCCCCCCCCCCC(=O)O)C(=O)O)NC(=O)[C@H](C)NC(=O)[C@H](C)NC(=O)[C@H](CCC(N)=O)NC(=O)CNC(=O)[C@H](CCC(=O)O)NC(=O)[C@H](CC(C)C)NC(=O)[C@H](Cc1ccc(O)cc1)NC(=O)[C@H](CO)NC(=O)[C@H](CO)NC(=O)[C@@H](NC(=O)[C@H](CC(=O)O)NC(=O)[C@H](CO)NC(=O)[C@@H](NC(=O)[C@H](Cc1ccccc1)NC(=O)[C@@H](NC(=O)CNC(=O)[C@H](CCC(=O)O)NC(=O)C(C)(C)NC(=O)[C@@H](N)Cc1cnc[nH]1)[C@@H](C)O)[C@@H](C)O)C(C)C)C(=O)N[C@@H](C)C(=O)N[C@@H](Cc1c[nH]c2ccccc12)C(=O)N[C@@H](CC(C)C)C(=O)N[C@H](C(=O)N[C@@H](CCCNC(=N)N)C(=O)NCC(=O)N[C@@H](CCCNC(=N)N)C(=O)NCC(=O)O)C(C)C [semaglutide]
Maximum solubility within reverse micelles ([1]; after 48 h to 72 h, dry addition, 200 mM ELA or DOC, 50 mg/mL added, RT, HPLC, means n ≥ 3): ~100%
Solubility in RM in comparison to HIP ([1]; best performing lipid phase glycerol monocaprylocaprate:caprylic acid 1:4 (m/m)): at least 2 fold
Apparent permeability coefficient (Papp) (Caco-2 monolayer): significantly lower Papp value

bovine serum albumin [66.4 kDa reference polypeptide]
Precipitation efficiency of HIP with ethyl lauroyl arginate [2]: 39.1 ± 2.2%
Isoelectric point (IEP) [3]: 5.0
Solubility within reverse micelles ([1]; even after prolonged incubation time, dry addition, 200 mM surfactant, RT, HPLC): below 1 mg/mL

colistin [1.1 kDa reference peptide]
Isoelectric point (IEP) [3]: 5.0
Change in lipophilicity (log D lipid phase/water) in RM (log D lipid phase/water; RM formed with docusate): enhanced lipophilicity
Change in lipophilicity (log D lipid phase/water) in RM (log D lipid phase/water; RM formed with ethyl lauroyl arginate): almost no increase in lipophilicity

lysozyme [14.4 kDa reference polypeptide]
Precipitation efficiency of HIP with ethyl lauroyl arginate [2]: 0.0 ± 1.7%
Isoelectric point (IEP) [3]: 11.0
Improvement in lipophilicity in RM compared to the native peptide (log D lipid phase/water; log D lipid phase/water, RM): up to 600 fold
Solubility in RM, times lower compared to semaglutide ([1]; reverse micelles, dry addition, pronounced increase only after 72 h): about 10 times
